The values below are quoted from earlier work in patent US20060024387A1, “Methods and compositions for increasing milk production in animals” (priority 2004, published 2006).

For the series the following is noted: injection.

B1: BST: Hormone injected to increase milk production in lactating cows (protein, UniProt P01246 27-217, looked up)
Somatotropin: AFPAMSLSGLFANAVLRAQHLHQLAADTFKEFERTYIPEGQRYSIQNTQVAFCFSETIPAPTGKNEAQQKSDLELLRISLLLIQSWLGPLQFLSRVFTNSLVFGTSDRVYEKLKDLEEGILALMRELEDGTPRAGQILKQTYDKFDTNMRSDDALLKNYGLLSCFRKDLHKTETYLRVMKCRRFGEASCAF
B1: the “effect on milk production” value is reported as “increase milk production”.
